Measured values published in US20240360242A1 (KISOJI BIOTECHNOLOGY, published 2024).
Changes are numbered by the printed parent chain.

T1: recombinant human TROP2 extracellular domain (aa 1-274) comprising His tag (human, UniProt P09758 27-274)
T1 construct: Used here for all assays on recombinant human TROP2 (ELISA, immunoblot, SPR, crystal), although only some of them name the catalogue number; also called human recombinant TROP2; recombinant human TROP2 protein; not shown: His tag
T1 sequence: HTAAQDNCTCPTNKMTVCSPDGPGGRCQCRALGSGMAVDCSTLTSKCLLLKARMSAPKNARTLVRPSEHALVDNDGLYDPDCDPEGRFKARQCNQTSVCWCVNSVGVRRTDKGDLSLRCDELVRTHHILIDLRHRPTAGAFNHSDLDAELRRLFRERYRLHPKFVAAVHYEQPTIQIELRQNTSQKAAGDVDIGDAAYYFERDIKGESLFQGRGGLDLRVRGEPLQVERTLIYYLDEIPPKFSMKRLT

T2: recombinant cynomolgus/Rhesus TROP2 full-length extracellular domain (cynomolgus/Rhesus, UniProt P09758 27-274 (human entry))
T2 construct: also called cynomolgus TROP2
T2 chain: T1 sequence with M36V, S67N, I204V

B1: KD001 (antibody, human IgG1, V domains shown)
VH: QVQLQESGGGMVHPGGSLRLSCAASGFTFSGSDMSWVRQAPGKGPEWVSYITSGGTTYYPDSVKGRFTISRDNAKNTLYLQMNSLTPDDTALYRCAKARLTDSHYVEDAWGQGTQVTVSS
notes: also called anti-TROP2 sdAb KD001
B2: KD004 (antibody, human IgG1, V domains shown)
VH: B1 VH with M11L, H13Q, G16R, S53G, G54S, I69T, T77M, T86K
notes: also called anti-TROP2 sdAb KD004
B3: KD005 (antibody, human IgG1, V domains shown)
VH: B1 VH with M11L, H13E, P14A, T86K, A98S
notes: also called anti-TROP2 sdAb KD005
B4: KD002 (antibody, human IgG1, V domains shown)
VH: QVQLQESGGGMVQVGGSLRLSCAASGFPFSSADMSWVRQAPGKGPEWVSYINADGSKTYYPDSVKGRFTISRDNAKNTLYLLMNNLKPEDTALYRCARAKLTDTHYVEDYWGQGTQVTVSS
notes: also called anti-TROP2 sdAb KD002
B5: KD003 (antibody, human IgG1, V domains shown)
VH: B4 VH with V14P, P28T, S31N, A32Y, D54G, K57N, Y59D, T78M
notes: also called anti-TROP2 sdAb KD003

Molecular target: T1, recombinant human TROP2 extracellular …
Assay: SPR

Going from B1 to B2, the Kd falls from 82.6 pM to 29.4 pM (2.8-fold).

Going from B3 to B4, the Kd rises from 26.8 pM to 43.2 pM (1.6-fold). The first binds more tightly here.

For B5, the Kd was 89.3 pM.

Molecular target: T2, recombinant cynomolgus/Rhesus TROP2 …
Assay: SPR

B1 and B2 are within 1.5-fold of each other in Kd: 25.7 pM for the first, 35.8 pM for the second.

B3 and B4 are within 1.5-fold of each other in Kd: 59.7 pM for the first, 81.1 pM for the second.

In the case of B5, the Kd is reported as 169 pM.

Molecular target: T2, recombinant cynomolgus/Rhesus TROP2 …
Assay: ELISA on coated recombinant TROP2 ECD, 1:5 dilutions from 1000 nM, RLU
Description: TROP2 full-length extracellular domain recombinant proteins including cynomolgus/Rhesus (FIG. 12A), human (FIG. 12B), mouse (FIG. 12C), and rat (FIG. 12D) were coated on 96-well ELISA plates at the concentration of 1 μg/mL. Plates were covered with adhesive plate cover and stored at 4° C. overnight. The next day, plates were washed 3× with washing buffer (PBS with 0.1% Tween™ 20). Plates were blocked with 2% fat-free BSA in washing buffer for 1 hour at 37° C. During the incubation time, the anti-TROP2 sdAbs were diluted in the blocking buffer to the indicated concentrations. In brief, the anti-TROP2 sdAbs starting concentration was 1000 nM and serial diluted 1 in 5 to 0.02048 pM. After blocking, the blocking buffer was removed from the wells and 100 μL of anti-TROP2 sdAbs dilutions were transferred to the corresponding wells. Plates were covered with adhesive plates cover and incubated at 37° C. for 1 hour. During the primary antibody incubation, the secondary antibody (goat anti-human IgG, HRP conjugated) was diluted 1 in 5000 with the blocking buffer. Plates were washed 3× with blocking buffer, followed by secondary antibody incubation for another 1 hour at 37° C. After the secondary antibody incubation, plates were washed 3× with washing buffer and added with 100 μL of ELISA chemiluminescent substrate (Thermofisher). The luminescence signal was detected by SpectraMax i3x at […].

B1 and B2 are the same in “EC50 (read off the curve)” value: about 200 pM for the first, about 200 pM for the second.

B3 and B4 are the same in “EC50 (read off the curve)” value: about 200 pM for the first, about 200 pM for the second.

In the case of B5, the “EC50 (read off the curve)” value is reported as about 200 pM.

Molecular target: T1, recombinant human TROP2 extracellular …
Assay: SPR
Remark: another data set of the same source

Compared with B1, B2 is 2.8-fold lower in Kd: 82.6 pM for the first, 29.4 pM for the second. The second binds more tightly here.

First: B3
Second: B4
The Kd of the first is 1.6-fold lower: 26.8 pM for the first, 43.2 pM for the second. The first binds more tightly here.

B5 showed a Kd of 45.9 pM.

Going from B1 to B2, the koff falls from 7.54e-05 s⁻¹ to 4.42e-05 s⁻¹ (1.7-fold).

B3 and B4 are within 1.5-fold of each other in koff: 4.27e-05 s⁻¹ for the first, 5.69e-05 s⁻¹ for the second.

B5 was tested, and the koff was 4.88e-05 s⁻¹.

Going from B1 to B2, the kon rises from 913000 M⁻¹ s⁻¹ to 1.51e+06 M⁻¹ s⁻¹ (1.7-fold).

B3 and B4 are within 1.5-fold of each other in kon: 1.59e+06 M⁻¹ s⁻¹ for the first, 1.32e+06 M⁻¹ s⁻¹ for the second.

In the case of B5, the kon is reported as 1.06e+06 M⁻¹ s⁻¹.

Molecular target: T1, recombinant human TROP2 extracellular …
Assay: ELISA, coated rh TROP2
Description: Human TROP2 recombinant proteins were coated on 96-well ELISA plates at the concentration of 1 μg/mL. Plates were covered with adhesive plate cover and stored at 4° C. overnight. The next day, plates were washed 3× with washing buffer (PBS with 0.1% Tween™ 20). Plates were blocked with 2% fat-free BSA in washing buffer for 1 hour at 37° C. During the incubation time, the TROP2 reference antibodies, as well as the humanized variants, were diluted in the blocking buffer to the indicated concentrations. […] After blocking, the blocking buffer was removed from the wells and 100 μL of anti-TROP2 sdAbs dilutions were transferred to the corresponding wells. Plates were covered with adhesive plates cover and incubated at 37° C. for 1 hour. During the primary antibody incubation, the secondary antibody (goat anti-human IgG, HRP conjugated) was diluted 1 in 5000 with the blocking buffer. Plates were washed 3× with blocking buffer, followed by secondary antibody incubation for another 1 hour at 37° C. After the secondary antibody incubation, plates were washed 3× with washing buffer and added with 100 μL of ELISA chemiluminescent substrate (Thermofisher). The luminescence signal was detected by SpectraMax i3x at […].

B3 and B4 are within 1.5-fold of each other in EC50: 80 pM for the first, 55 pM for the second.

Compared with B3, B4 is lower in “EC50% to KD005” value: 1 ratio to KD005 for the first, 0.688 ratio to KD005 for the second.

Molecular target: T1, recombinant human TROP2 extracellular …
Assay: competitive ELISA on coated recombinant human TROP2, competitor KD003-His (14285.7 pM per text), anti-His-HRP
Description: The epitope characterization was assessed by competitive ELISA (FIG. 8 and FIG. 9). Microplates were coated with human recombinant TROP2 at 4° C. overnight. After washing, plates were blocked with blocking buffer (PBS+2% BSA), for 1 hour at room temperature. Meanwhile, the dilution for anti-TROP2 VHH sdAbs was prepared with blocking buffer making two different dilutions depending on the tag. For sdAbs with His tag, the antibody was diluted to 28571.4 pM. For sdAbs without tag, antibodies were serially diluted from 2857142.9 pM to 0.29 pM (8 dilutions, 10×). After that, equal volume of the his-tagged sdAbs and serial diluted non-tagged sdAbs were mixed, to make the final concentration of his-tagged sdAbs 14285.7 pM and non-tagged sdAbs from 1428571.4 pM to 0.14 pM. After washing two times, the mixed antibody contents were added into the wells and the plates were incubated for 2 hours at room temperature. The HRP-conjugated anti-6× His was diluted to 1:5000 and added to the wells after washing three times. Any unbound conjugate was removed by washing after 1 hour incubation at room temperature, and the colorimetric reaction was performed by adding the same volume of Supersignal ELISA Pico Luminol/Enhancer and SuperSignal ELISA Pico Stable Peroxide Solution and detected on SpectraMax i3x Microplate Reader. Positive and negative controls were included in each plate.

B1 and B2 are the same in “IC50 (read off the curve)” value: about 40000 pM for the first, about 40000 pM for the second.

First: B3
Second: B4
The “IC50 (read off the curve)” value of the first is 1.5-fold lower: about 40000 pM for the first, about 60000 pM for the second.

For B5, the “IC50 (read off the curve)” value was about 30000 pM.
